The values below come from article PMC5458757 (Genes & Development, 2017).

The target of experiment [1] is T1, human SIAH1-SBD (91–282) (human, UniProt Q8IUQ4-1 91-282).
T1 sequence (looked up): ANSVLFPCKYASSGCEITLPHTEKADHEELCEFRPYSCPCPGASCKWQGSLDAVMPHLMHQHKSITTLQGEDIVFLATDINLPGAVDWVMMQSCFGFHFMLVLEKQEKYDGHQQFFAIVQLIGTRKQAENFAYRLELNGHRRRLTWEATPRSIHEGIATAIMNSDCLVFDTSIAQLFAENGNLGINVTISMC
The experiment in a line: pull-down.

Experiment [2] has as its target T1, human SIAH1-SBD (91–282). The experiment in a line: ITC. For orientation: In ITC the heat of successive injections is recorded.

B1: GST-tagged AXIN1 (353–436) (domain or fragment, human, UniProt O15169-1 353-436, looked up)
chain: RREMQESVQVNGRVPLPHIPRTYRVPKEVRVEPQKFAEELIHRLEAVQRTREAEEKLEERLKRVRMEEEGEDGDPSSGPPGPCH
With B1, the binding result with human SIAH1-SBD (91–282) [1] is “binds”.
As a reminder, the Kd is the concentration at which binding is half-saturated. High values mean weaker binding, low ones tighter binding. The molecule YRVPKEVRVEPQKFAEELIH (peptide, UniProt O15169-1 375-394, looked up) [20-residue human AXIN1 peptide (residues 375–394)] showed a Kd with human SIAH1-SBD (91–282) [2] of 5.6 µM.
